Measurements: patent US20240109974A1 (SHANDONG SIMCERE BIOPHARMACEUTICAL, published 2024)

B1: 224-WT (antibody, V domains shown)
VH: EVQLQESGPEIVKPGASVKLSCTASGFNNKDIYMHWVKQRPEQGLEWIGRIDPATGNTKHDPKFQDKATLSSDTSSNTAYLQFSSLTSEDTAVYYCAHSPYGDFGAMDYWGQGTTVTVSS
VL: DIQMTQSPAIMSASLGERVTMTCTASSSVSSNYLHWYQQKPGSSPKLWIYSTSNLPSGVPARFSGSGSGTSYSLTISSMEAEDAATYYCHQYHRSPWTFGGGTKLEIK
notes: Human-murine chimeric wild-type molecule; also called human-murine chimeric antibody WT of #224
B2: 001-WT (antibody, V domains shown)
VH: EVQLQESGGGLVQPGGSLNLSCAASGFAFSTYDLSWVRQTPEKRLEWVAYINNGGISTYYSDTVKGRFTISRDNAKNTLYLQMSSLKSEDTAMYYCVRGPFYGSANYFDYWGQGTTVTVSS
VL: EIVMTQSPASLSLSVGETVTITCRTSESIYSNLPWYQQKQGKSPQLLVYDATKLAEGVPSRFSGSESGTQYSLKINSLQSEDFGTYYCQHFWVTPWTFGGGTKLEIK
notes: Human-murine chimeric wild-type molecule; also called human-murine chimeric antibody WT of #001

Columns and labels:
[1] = biological target: T1, human TNFR2 on the surface of CHO-TNFR2 cells (human, UniProt P20333 23-461); test: flow cytometry competition: antibody titrated on CHO-TNFR2 cells, then human TNFα-biotin, detection with PE-streptavidin [panel C]
T1 construct: whole, on cells
T1 sequence (looked up): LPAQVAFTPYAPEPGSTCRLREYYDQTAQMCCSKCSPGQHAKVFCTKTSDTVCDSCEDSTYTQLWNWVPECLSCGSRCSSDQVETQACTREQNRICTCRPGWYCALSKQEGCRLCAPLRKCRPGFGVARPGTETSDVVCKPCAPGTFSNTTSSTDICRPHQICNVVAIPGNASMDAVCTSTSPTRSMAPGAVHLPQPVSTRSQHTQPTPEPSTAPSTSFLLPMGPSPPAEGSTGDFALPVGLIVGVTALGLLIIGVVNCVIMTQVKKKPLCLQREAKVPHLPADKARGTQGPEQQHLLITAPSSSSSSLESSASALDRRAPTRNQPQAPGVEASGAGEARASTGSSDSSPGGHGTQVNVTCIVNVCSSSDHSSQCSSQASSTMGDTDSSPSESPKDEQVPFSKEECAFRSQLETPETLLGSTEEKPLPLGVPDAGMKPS
Protocol: (§1) CHO stable cells highly expressing human TNFR2 were used for the experiment (the same as CHO-TNFR2 in Example 4). The CHO-TNFR2 cells were digested, washed twice with DPBS, then stained with Live/Dead (L/D) (20 minutes at room temperature), and plated at a density of 1×10⁵ cells/50 μl/well. A test anti-TNFR2 antibody was diluted to 6 μg/ml with a staining buffer as the starting concentration: the antibody was subjected to 3.33-fold gradient dilution, with a total of 7 concentration points. The diluted antibody was added to the plated cells at 50 μl/well, and the mixture was mixed well by gentle pipetting, and incubated at 4° C. for 30 minutes. Then the diluted 100 ng/ml of human TNFα-biotin was added at 100 μl/well, and the mixture was mixed well by gentle pipetting, and then incubated at 4° C. for 30 minutes. The mixture was washed twice with a staining buffer, and then 0.12 μg/ml PE-streptavidin (BioLegend, Cat #405204) was added at 100 μl/well; the resulting mixture was incubated at 4° C. for 30 minutes. The mixture was washed twice with a staining buffer, and then 150 μl of staining buffer was added to resuspend the cells; signals were detected by a flow cytometer (Thermo Attune NxT). […]

[2] = biological target: T1, human TNFR2 on the surface of CHO-TNFR2 …; test: flow cytometry competition: antibody titrated on CHO-TNFR2 cells, then human TNFα-biotin, detection with PE-streptavidin [panel A]
Protocol: as §1

[3] = biological target: T2, Cynomolgus TNFR2-His (Sino 90102-C08H) (cynomolgus monkey, UniProt A0A2K5VET2 132-366); test: ELISA, plate coated with Cynomolgus TNFR2-His, detection with anti-human IgG Fc-HRP [panel A]
T2 construct: Bought protein; also called cynomolgus monkey TNFR2; recombinant cynomolgus monkey TNFR2 protein; not shown: His tag
T2 sequence: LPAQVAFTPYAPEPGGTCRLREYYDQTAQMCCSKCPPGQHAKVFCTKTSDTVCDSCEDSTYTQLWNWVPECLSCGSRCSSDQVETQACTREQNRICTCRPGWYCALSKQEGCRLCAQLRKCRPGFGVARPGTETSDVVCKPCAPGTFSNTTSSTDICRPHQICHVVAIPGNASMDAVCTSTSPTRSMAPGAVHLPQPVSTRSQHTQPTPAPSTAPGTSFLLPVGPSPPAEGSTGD
Protocol: The test humanized antibody against TNFR2 (as described in Example 1, the antibody was comprised of variable regions linked to IgG-Fc; the WT chimeric antibody also adopted the IgG-Fc structure) was subjected to 3.33-fold gradient dilution, loaded with 100 μl/well, and incubated with shaking at room temperature for 1.5 hours. The plate was washed, and then a working solution of murine anti-human IgG Fc-HRP (diluted at 1:10000) was added, loaded with 100 μl/well, and incubated with shaking at room temperature for 1.0 hour. The plate was washed again, and then the substrate TMB of HRP was added to develop colour. A stop solution was added to stop the reaction, and then a microplate reader (MD 13) was used to read the absorbance value. The binding curve of an antibody was drawn with antibody concentration as the abscissa and corresponding OD value as the ordinate, and fitted with four parameters (GraphPad Prism9) to calculate the EC50 value. The smaller the EC50 value, the stronger the binding ability of an antibody to human/cynomolgus monkey TNFR2. The binding effect of a humanized antibody was normalized to its corresponding human-murine chimeric antibody WT (see SEQ ID NOs: 38-43 for the sequence). The higher the percentage value, the better the binding effect of the humanized antibody. […]

| Binder | IC50 (read off the curve) [1] [µg/mL] | IC50 (read off the curve) [2] [µg/mL] | EC50 (read off the curve) [3] [µg/mL] |
| --- | --- | --- | --- |
| B1 | ~0.05 | – | – |
| B2 | – | ~0.09 | ~0.01 |
